{
  "source": "the DeepSol protein solubility set",
  "data": [
    {"test": "soluble on expression in E. coli; label from the status in PepcDB or PDB records", "values": [
      {"sequence": "MRGSHHHHHHGSATSANTDRIATAELGIAENKKDAQIAKAQANENKDGIAKNQADIQLHDKKITNLGILHSMVARAVGNNTQGVATNKADIAKNQADIANNIKNIYELAQQQDQHSSDIKTLAKVSAANTDRIAKNKAEADASFETLTKNQKLCSQA", "soluble on expression in E. coli": "soluble"},
      {"sequence": "MGSDKIHHHHHHMTTYRTVSIDGLDIFYREAGSRNNPTILLLHGFPTSSHMFRNLIPALADKFHLVAPDYPGYGNSSMPTVNEFDYTFDNLAEIVEKFIAAIALKKYSLYVMDYGAPIGYRIAAKYPERVQSLIVQNGNAYEEGLREFWEPIKAYWQERSPENAEKLKYLVTLEATKWQYTNGVRNLEAISPDTWTMDQHFLDRPGNDEIQLALLYSYGTNPLLYPQWQEYFRNYQPPTLIVWGKNDYIFPADGAYPYQRDLKDVEFHLLDTGHFALEEDGDAIANYIDQFLTSRLQSIPV", "soluble on expression in E. coli": "not soluble"},
      {"sequence": "MGSDKIHHHHHHMKNNFLVNFILLHGYSLDNSSLMFGKMGYSLILFEYSHYFKDALAEKHAFELLQEVLASPMKSNTFNEGKMGIAWSLIHLIEKEYIEADYLELYGQEHKEIVAFIKQLKTDMNNIVSKNDAISFLIASKSYIQESDFDEILPNLIENLYDYLKQIPKSLFERNLFYYHATKMLCLYNLYEELSIRGETLIDIIVQTHKKLISDKHVCTNISFGVNLLQYGLCHKRKDIIKLANAIIKCYFSNMVLETLNLKESIDAIYNLNKLQLLNKESEWTSLKKQLSSLLFNKESYLYKENRLTLSRLKGGIPQLLLMECLNFQDIKSTGHYIMLK", "soluble on expression in E. coli": "not soluble"},
      {"sequence": "MLVFISNSRLSESEVQKLRDKHLIDDFIQRENKGYDFAAWHDGMEFVGFENLKQYDSVTVMNDTCFGPLWDMAPIYDNYESNPNVDFWGMTNHQGIKAGDIYIHEHLQSYFISFKKRLVESSVFQKFWKSVESFEDVQKVIDNYETLYTKKFRDAGFNYESILNTIPLNDKFFHSNFTIHYPHVLLDTGVPFIKVKTFDLTQHLAPYLLKEIEKRTDYPVELILSHMSDMSLPTPPYLLDRKVIEKSSQTYSDTKKIAVHLHTYYVDLLEDFLKQFENFHFTYDLFLTTDSEDKKAEIQSILDKNGKVARIFITGNRGRDVIPMLKLKDELSAYDYIGHFHTKKSPEYPYWVGDSWRNELFSMLIQPADNIIANLERDDRLGLVIADIPSFFRYTKIVDPWNENRFAEGMNDLWERMDLGRDIDFDKMNTFIMSYGTFIWFKYDALKPLFDLDLQDEEIPAEPIPQHTILHSIERILVYLAWARRYDYAIAKNDIYITPFVDNVVLNIRPDTLPNTYINFDNIGGIKGALKYIIVGPGTAVKYIFRRIKRKFKSLEHHHHHH", "soluble on expression in E. coli": "soluble"},
      {"sequence": "MKTAAYMIHCLTNMHVGKGDATYEVVDKCVQRDVTTGMPCIYSSSLKGALRQFFSKQGFAELNYVFGKDQSRDKKNNGNEKNEEEHSVGNFTFFQANLLAYPVQTTQEGATYILKTNKTLQDPIKELANLFSAPSNIEEMLPKETEKDLSNETLEQLPVIARNQLDNGKSENLWYEEVVPAESRFVFFVSYDDEEIFTKFDKIIQEKVIQIGANGSIGYGFCKIANVTNPFKK", "soluble on expression in E. coli": "soluble"},
      {"sequence": "MISICLVNTYDKLKKHEIHLRSIARAAPLCYAFNFHLALLDFPFWRSEKEVAEEVANYTTIGEGGKYLLYLAESGKLHLIDKIPAHFGEVVATTSKPDPDKVVNPDTLAAFKSATFLIGLGRRGLPREMLKSAKYHLDVTRKGVSLETCSAIGAIAMLLAVKVVG", "soluble on expression in E. coli": "not soluble"},
      {"sequence": "MQALGLIETRGLLPAIECADVMLKTAQVELVGRDFVGGGLVTISVTGDVGAVKAAVEAGAAAVEKISPLLLVSQHVIPRPHQEIEGMIGPSPAAKQAPPVPQPEKVKALPGFDQTTNKQTIDDFVQEFGLEPCVDALKTLPVLKLRNLAREYKGLAIAGRAISKANKEDLIQQLKEYYNQKHE", "soluble on expression in E. coli": "not soluble"},
      {"sequence": "MSLDFRDYMVKQVAARSGYQLQLDGPLRWHVWPQLSILSGRMSLTAQGASQPLVRADNMRLDVALLPLLSHQLSVKQVMLKGAVIQLTPQTEAVRSEDAPVAPRDNTLPDLSDDRGWSFDISSLKVADSVLVFQHEDDEQVTIRNIRLQMEQDPQHRGSFEFSGRVNRDQRDLTISLNGTVDASDYPHDLTAAIEQINWQLQGADLPKQGIQGQGSFQAQWQESHKRLSFNQISLTANDSTLSGQAQVTLTEKPEWQLRLQFPQLNLDNLIPLNETANGENGAAQQGQSQSTLPRPVISSRIDEPAYQGLQGFTADILLQASNVRWRGMNFTDVATQMTNKSGLLEITQLQGKLNGGQVSLPGTLDATSINPRINFQPRLENVEIGTILKAFNYPISLTGKMSLAGDFSGADIDADAFRHNWQGQAHVEMTDTRMEGMNFQQMIQQAVERNGGDVKAAENFDNVTRLDRFTTDLTLKDGVVTLNDMQGQSPVLALTGEGMLNLADQTCDTQFDIRVVGGWNGESKLIDFLKETPVPLRVYGNWQQLNYSLQVDQLLRKHLQDEAKRRLNDWAERNKDSRNGKDVKKLLEKMEGHHHHHH", "soluble on expression in E. coli": "soluble"},
      {"sequence": "MGSDKIHHHHHHMKTLKNLITSKHQTKASRFLGYLMPFDDFEKTLLQLKKEHFKAAHFVTAFRYSLEGKITEGFSDDGEPKGSSGMPMLSVLRREDLINIGLVSVRYFGGTLLGVGGLMKAYAKSALLCVENAQKEDALKDFVELETLSAHYSYKELDALQREIKKFSLQLSKKNFSNQSVEVEISGTRENLQAFLQQNKIN", "soluble on expression in E. coli": "not soluble"},
      {"sequence": "MGESSGGGNSRQLQFSRKAGKGVVKTIHEYRSKPLRVGRKGEWRPAISDENRKLIRGVAEIIKIRPINVPDYAVVNPLGIMRQAYGTMVGGIANEPWSLESRKTIEEVVFLPIMDGEVRKGQLEHHHHHH", "soluble on expression in E. coli": "not soluble"},
      {"sequence": "MSLWLPSEATVYLPPVPVSKVVSTDEYVARTNIYYHAGTSRLLAVGHPYFPIKKPNNNKILVPKVSGLQYRVFRIHLPDPNKFGFPDTSFYNPDTQRLVWACVGVEVGRGQPLGVGISGHPLLNKLDDTENASAYAANAGVDNRECISMDYKQTQLCLIGCKPPIGEHWGKGSPCTQVAVQPGDCPPLELINTVIQDGDMVDTGFGAMDFTTLQANKSEVPLDICTSICKYPDYIKMVSEPYGDSLFFYLRREQMFVRHLFNRAGTVGENVPDDLYIKGSGSTANLASSNYFPTPSGSMVTSDAQIFNKPYWLQRAQGHNNGICWGNQLFVTVVDTTRSTNMSLCAAISTSETTYKNTNFKEYLRHGEEYDLQFIFQLCKITLTADVMTYIHSMNSTILEDWNFGLQPPPGGTLEDTYRFVTSQAIACQKHTPPAPKEDPLKKYTFWEVNLKEKFSADLDQFPLGRKFLLQLGLKAKPKFTLGKRKATPTTSSTSTTAKRKKRKL", "soluble on expression in E. coli": "soluble"},
      {"sequence": "MAHHHHHHMELSKYAGLSSERLDCLRNLDIRKRSIYKGSTFSYGNNIYDILHNYSDKQKENKSDGVSVAHDYKDFQRNIKFAGLESEIKNDINIRNRRIKNDMNYRNDNLKDILQNNMNEQNINNSKYFLSDKGYVLTPKRCLARHVDDSEINKYFSTKYAVTDSSTGRTEIMVERKPGCSNIIVQNFSEFDAYGTYKKKDERINRRDSFVHTKMGIVPRDGSCIDNNKCKAQATFTHIHRRDNIAPDNYWLCPTIESDKKNKTKR", "soluble on expression in E. coli": "not soluble"},
      {"sequence": "MLEFSSEVSLLDSVKNILLEYGLRFQEPQIEKVDKYIEELLGVPYNLTAHRDLDSAVHKNVVEILLPLKEELKGTLLDVGSGNGVPGLILAIFFSKLKVVLLDSREKSVNFLRGVIEKLDLENVSVVKERAENFSKERREEFDYVTARAVARLNVLVEICTPALKTGGKLLFYKGPSYIEELKEAQRAMKELKVELEKVREYSLKTGERRALLILRKYESSPEKYPRRVGVPFKRPLL", "soluble on expression in E. coli": "soluble"},
      {"sequence": "MVTLYGIKNCDTIKKARRWLEANNIDYRFHDYRVDGLDSELLNGFINELGWEALLNTRGTTWRKLDETTRNKITDAASAAALMTEMPAIIKRPLLCAPGKPMLLGFSDSSYQQFFHEV", "soluble on expression in E. coli": "not soluble"},
      {"sequence": "MRDVTKGSFNDSPNNGFFEIQYKEDGVYLTVHPPIGKGKAVEVNDVISRLTQKKIVYDKEMVELAVQRASNVPVKIGEPQEELKLDATIDVNISPDKMKATMVIRPPDGGRMLTKDEMMEILKNSGVRYGINESMLENVSKYPVYNEIIVIAEGTPPINGQNGKVEFHFDLKKERKPTILEDGRVDFRELNLIESVKKGQVLCTLVPPLPGTPGRTVEDIEVPALDGKPAVLPKGKNVEISEDGQSLIAGIDGQVNYIDGKVSVFANYEVPADVDNSTGNISFVGNVIIRGNVLSGFTVEAGGSVEVMGVVEAAVIKADGDIILRRGMQGLGRGILKSGGDIIAKYIENSIIEAKGDIKAEAIMHSNVKCGNKLELSGKKGLLIGGKCKVGKEIVAKVIGSYLATHTDIEVGVDPQIKERYKELRDEIRKIEEDLVKAEQAITILKKLEAAGKLTPEKQELMARSIRTKIYYSNRLGELKEELIITEQRLQKEADGKIRVFDHIYPGTKVTIGTSMMYVKEDLQYCTLYRDGADIRVGPIDK", "soluble on expression in E. coli": "soluble"},
      {"sequence": "MGSDKIHHHHHHTEGWFMPFDNWLYQLQNADPVEISSSGFEIAVIDYSKDGSESGEYSPEEIKIMVDAGVVPVAYVNIGQAEDYRFYWKESWYTNTPEWLGEEDPAWPGNYFVKYWYNEWKEIVFSYLDRVIDQGFKGIYLDRIDSFEYWAQEGVISRRSAARKMINFVLEIAEYVRERKPDMLIIPQNGENILDFDDGQLASTVSGWAVENLFYLKTIPLEENETKSRLEYLIRLNRKGKFILSVDYVDDGSDSFENISRILDYYEKAKRNGCIPYAARSDLELDEMNVIEGIQPPEALKDYESRTYR", "soluble on expression in E. coli": "soluble"},
      {"sequence": "MMLSALVYTYPYKRSSGFERLRDRIHRKRHRHQKPSVMNETDELYEMSMVTQKSDDDSDLASRIRSEKSIPSTLTTPPTVTYHRRHHHHHKKNRREKNEELCESQRKIVELNTQSHEFDPPFVVEVRCLNSQSPIGSLLSGQEQTCFKGMLRCVQQYADVHVSRRSVGSIHWHPFTIPDAPISCQCMWPVDRYGHQEF", "soluble on expression in E. coli": "soluble"},
      {"sequence": "PQPSRPRKGSLGFGPRKRSTSETPRFNSWPSDDGQPGVQGFAGYKAGMTHVVLVNDEPNSPREGMEETVPVTVIETPPMRAVALRAYEDTPYGQRPLTEVWTDEFHSELDRTLDVPEDHDPDAAEEQIRDAHEAGDLGDLRLITHTVPDAVPSVPKKKPDVMETRVGGGSVSDRLDHALDIVEDGGEHAMNDIFRAGEYADVAGVTKGKGTQGPVKRWGVQKRKGKHARQGWRRRIGNLGPWNPSRVRSTVPQQGQTGYHQRTELNKRLIDIGEGDEPTVDGGFVNYGEVDGPYTLVKGSVPGPDKRLVRFRPAVRPNDQPRLDPEVRYVSNESNQG", "soluble on expression in E. coli": "soluble"},
      {"sequence": "MLSGDLAEFPFPSLVGALMSAGRTGRLHLRPPFLEAEVYLRGGQVVHAKAQAGERALEGEEALDLLVGLRRAPFVFEPEALPPHTTLLGGLEVPARLAQAQAAWEKVKLPADWGLRLRLPREGSAVELPPEALGLLARVEGKRIAEVLLAPGVLRQARVLSTLLEVGALEAYPEVDLPPEPLVVLPIYGPGSGVAYVDEALYAQWARAIRRGFRVRLLPLGAVLEVRPRPNLQGRVGLMEEDLKRLRLRRGDKVEAVPKV", "soluble on expression in E. coli": "soluble"},
      {"sequence": "MGSDKIHHHHHHMSKILNTQLIGIFNRLEKQSLEIQMAAQCLIQAIGGEGYVYVKGYDDLQFFESFILHSDERLKSSRKLDAIKDFKEIDSTDRVLLFAPFYNDQVALDIQKLIDLDIDVVLISNKPKTDDFPDHLVHFIDLSTPRPIVYTEDYDKIVQPHAIALNYVYYDIYTQMIEMTRDLEL", "soluble on expression in E. coli": "not soluble"},
      {"sequence": "DKKLAIVIHDNPDPDAISSGLALKEIAKSLGVEASILYHGRIGHQENKAFVNLLGIDLGKMEEHDLKDFDEIALIDCSIPGVNNMVPPNSYVGIVIDHHPPGETEIKAEYIDIRPNFGATATIMTKYLQQLNINISKTLATALLYGIRTDTQDFKRKTDPADLSAASYLYPLSNHGILDQLEQPSMAI", "soluble on expression in E. coli": "not soluble"}
    ]}
  ]
}
